From US6828116

Tested on: T1, Cy5-Ala-Ala-Phe-Phe-Ala-Ala-Lys-Compound III
T1 sequence: AAFFAAK

pepsin
Cy5 fluorescence intensity over time (FRET quench release on cleavage), with and without pepsin: Protease-catalysed hydrolysis of the substrate removes this quenching, restoring the Cy5 fluorescence.
